The values below come from patent publication US20080206190A1 (CYTHERIS, published 2008).

Sequences and labels used below:
T1: UEA.I, lectin from Ulex europeus (Ulex europeus, UniProt P22972 1-243)
T1 construct: Lectin coated on the plate
T1 sequence (looked up): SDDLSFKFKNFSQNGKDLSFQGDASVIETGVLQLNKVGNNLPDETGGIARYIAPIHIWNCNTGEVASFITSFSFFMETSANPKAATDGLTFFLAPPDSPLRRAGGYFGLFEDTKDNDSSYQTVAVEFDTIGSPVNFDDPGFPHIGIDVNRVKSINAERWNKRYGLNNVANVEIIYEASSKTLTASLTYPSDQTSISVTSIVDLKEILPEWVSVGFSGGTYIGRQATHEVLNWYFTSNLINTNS

T2: PHA.L, lectin from Phaseolus vulgaris (Phaseolus vulgaris, UniProt P05087 21-272)
T2 construct: Lectin coated on the plate
T2 sequence (looked up): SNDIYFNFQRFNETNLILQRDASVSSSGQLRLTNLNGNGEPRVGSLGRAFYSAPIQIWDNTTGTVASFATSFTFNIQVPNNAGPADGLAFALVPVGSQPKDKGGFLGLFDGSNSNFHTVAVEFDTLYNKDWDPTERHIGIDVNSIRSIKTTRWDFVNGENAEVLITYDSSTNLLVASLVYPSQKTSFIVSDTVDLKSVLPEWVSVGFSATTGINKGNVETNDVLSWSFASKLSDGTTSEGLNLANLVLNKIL

B1: purified CHO-derived recombinant human IL-7 (highly glycosylated / hyperglycosylated hIL-7) (ligand)
chain: DCDIEGKDGKQYESVLMVSIDQLLDSMKEIGSNCLNNEFNFFKRHICDANKEGMFLFRAARKLRQFLKMNSTGDFDLHLLKVSEGTTILLNCTGQVKGRKPAALGEAQPTKSLEENKSLKEQKKLNDLCFLKRLLQEIKTCWNKILMGTKEH
modifications: complex N-linked oligosaccharides at Asn 70, 91 and 116; O-glycan at Thr 110; batch is a mixture of fully and partially glycosylated proteins
notes: also called CHO-derived hIL-7; purified IL-7 protein
B2: ABA, lectin from Agaricus bisporus (other, UniProt Q00022 2-143, looked up)
chain: TYTISIRVYQTTPKGFFRPVERTNWKYANGGTWDEVRGEYVLTMGGSGTSGSLRFVSSDTDESFVATFGVHNYKRWCDIVTNLTNEQTALVINQEYYGVPIRDQARENQLTSYNVANAKGRRFAIEYTVTEGDNLKANLIIG
notes: Lectin coated on the plate

Assay in all cases: lectin-coated plate ELISA; bound IL-7 shown by biotinylated anti-hIL-7 antibody and streptavidin-peroxidase
A general note: In an ELISA, binding on a coated surface is turned into a signal by an enzyme label.

In experiment [1] the target is T1, UEA.I, lectin from Ulex europeus. As for the experimental part:
(§1) An array of lectins having affinity for N- and O-glycan structures was selected and used to coat 96 well microplates. Identical amounts of recombinant purified IL-7 preparations were incubated into lectin coated microplate wells. During this step, according to the affinity of a given lectin to the glycan decoration of IL-7, different amount of IL-7 were kept bound to the lectin. Revelation was conducted by incubating an IL-7 specific antibody coupled to Biotin.
(§2) Eight different lectins were used to characterize the IL-7 purified samples. Each lectin specifically recognizes sugar moieties.

The target in experiment [2] is T2, PHA.L, lectin from Phaseolus vulgaris. As for the experimental part: as §1, §2
In experiment [3] the target is B1. The method, then: as §1, §2

In the case of B1, the binding result in experiment [1] and in experiment [2] was “binds” in each case.

In the case of B2, the binding result in experiment [3] is “binds”.
